Experiment [1] has as its target T1, full length human 5T4 (SEQ ID NO: 1) on cells (human, UniProt Q13641 32-420).
T1 construct: Uniprot Q13641; residues 1-31 are the signal peptide; Used both for transfected HEK-293 cells and for 5T4-expressing human tumor cell lines
T1 sequence: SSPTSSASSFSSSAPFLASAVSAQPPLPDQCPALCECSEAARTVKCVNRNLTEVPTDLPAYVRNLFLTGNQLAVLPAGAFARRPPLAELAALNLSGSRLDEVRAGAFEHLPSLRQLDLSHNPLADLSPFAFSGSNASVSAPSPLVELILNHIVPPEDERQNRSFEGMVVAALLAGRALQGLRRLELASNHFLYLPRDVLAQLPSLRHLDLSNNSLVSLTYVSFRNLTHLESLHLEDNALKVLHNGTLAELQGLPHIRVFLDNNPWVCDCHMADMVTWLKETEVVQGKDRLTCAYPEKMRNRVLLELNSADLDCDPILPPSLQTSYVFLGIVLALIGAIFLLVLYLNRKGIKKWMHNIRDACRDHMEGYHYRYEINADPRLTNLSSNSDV
As to the kind of experiment: flow cytometry, HeLa cells, PE secondary [II)B]. For orientation: A flow cytometer gives signals particle by particle.

Experiment [2] deals with T1, full length human 5T4 (SEQ ID NO: 1) on …. As to the kind of experiment: flow cytometry, HeLa cells, FITC secondary [I)C].
The target is the same in experiment [3]. The experiment can be described thus: flow cytometry, MDA-MB-231 cells, FITC secondary [I)C].
Experiment [4] shares this target. As to the kind of experiment: flow cytometry, MDA-MB-231 cells, PE secondary [III)B].
The target is the same in experiment [5]. The experiment can be described thus: flow cytometry, HEK-293 cells transfected with human 5T4, PE secondary [II)B].
Experiment [6] has the same target. The experiment can be described thus: flow cytometry, HEK-293 cells transfected with human 5T4, FITC secondary [I)B].
Experiment [7] has as its target T2, full length cynomolgus monkey 5T4 on transfected HEK-293 cells (cynomolgus monkey, UniProt Q4R8Y9 35-420).
T2 construct: Uniprot Q4R8Y9; residues 1-34 are the signal peptide; also called cynomolgus 5T4
T2 sequence: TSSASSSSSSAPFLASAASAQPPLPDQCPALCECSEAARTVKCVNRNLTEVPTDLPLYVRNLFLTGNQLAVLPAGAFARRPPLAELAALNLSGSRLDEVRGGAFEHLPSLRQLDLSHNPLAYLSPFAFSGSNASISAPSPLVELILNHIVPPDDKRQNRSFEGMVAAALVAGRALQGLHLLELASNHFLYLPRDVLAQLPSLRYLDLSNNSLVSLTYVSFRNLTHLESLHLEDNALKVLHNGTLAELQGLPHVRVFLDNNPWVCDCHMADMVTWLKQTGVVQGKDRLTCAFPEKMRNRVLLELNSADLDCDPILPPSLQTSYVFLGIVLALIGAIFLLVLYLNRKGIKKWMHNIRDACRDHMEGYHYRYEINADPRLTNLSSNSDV
The experiment can be described thus: flow cytometry, HEK-293 cells transfected with cynomolgus monkey 5T4, PE secondary [II)B].

The target in experiment [8] is T2, full length cynomolgus monkey 5T4 on …. The experiment can be described thus: flow cytometry, HEK-293 cells transfected with cynomolgus monkey 5T4, FITC secondary [I)B].
Experiment [9] addresses T1, full length human 5T4 (SEQ ID NO: 1) on …. As to the kind of experiment: flow cytometry, HeLa cells, PE secondary [II)D].
The target is the same in experiment [10]. As to the kind of experiment: flow cytometry, MDA-MB-231 cells, PE secondary [III)D].
Experiment [11] addresses T2, full length cynomolgus monkey 5T4 on …. As to the kind of experiment: flow cytometry, HEK-293 cells transfected with cynomolgus monkey 5T4, PE secondary [II)D].
Experiment [12] concerns the target T3, human 5T4ECDHis (mature protein of SEQ ID NO: 99) (human, UniProt Q13641 32-355).
T3 construct: ECD of human 5T4 (aa 1-355 of Uniprot Q13641) with C-terminal His tag; residues 1-31 are the signal peptide; also called ECD of human 5T4 with a C-terminal His tag
T3 sequence: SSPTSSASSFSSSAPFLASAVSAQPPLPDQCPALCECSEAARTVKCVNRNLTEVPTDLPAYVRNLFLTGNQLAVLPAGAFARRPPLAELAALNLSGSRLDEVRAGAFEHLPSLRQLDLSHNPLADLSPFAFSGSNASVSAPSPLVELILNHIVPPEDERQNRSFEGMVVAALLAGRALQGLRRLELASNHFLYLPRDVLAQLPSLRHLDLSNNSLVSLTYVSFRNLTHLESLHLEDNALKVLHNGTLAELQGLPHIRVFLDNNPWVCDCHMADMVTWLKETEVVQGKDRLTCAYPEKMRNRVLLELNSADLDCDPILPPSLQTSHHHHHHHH
The experiment can be described thus: BLI cross-block; competitor (immobilised): IgG1-5T4-H8-FEAR.

The target in experiment [13] is T3, human 5T4ECDHis (mature protein of SEQ …). As to the kind of experiment: BLI cross-block; competitor (immobilised): IgG1-5T4-059-FEAR.
Experiment [14] has the same target. As to the kind of experiment: BLI cross-block; competitor (immobilised): IgG1-5T4-076-FEAR.
Experiment [15] has the same target. The experiment can be described thus: BLI cross-block; competitor (immobilised): IgG1-5T4-085-FEAR.
Experiment [16] shares this target. The experiment can be described thus: BLI cross-block; competitor (immobilised): IgG1-5T4-106-FEAR.
Experiment [17] has the same target. As to the kind of experiment: BLI cross-block; competitor (immobilised): IgG1-5T4-127-FEAR.
The target is the same in experiment [18]. The experiment can be described thus: BLI cross-block; competitor (immobilised): IgG1-5T4-207-FEAR.
Experiment [19] has the same target. The experiment can be described thus: BLI cross-block; competitor (immobilised): IgG1-5T4-226-FEAR.
For experiment [20] the target is unchanged. As to the kind of experiment: BLI cross-block; competitor (immobilised): IgG1-5T4-A1-F405L.
The target is the same in experiment [21]. The experiment can be described thus: BLI cross-block; competitor (immobilised): IgG1-5T4-A3-F405L.
The target of experiment [22] is T1, full length human 5T4 (SEQ ID NO: 1) on …. As to the kind of experiment: flow cytometry, MDA-MB-231 cells, PE secondary [III)E].
In experiment [23] the target is T2, full length cynomolgus monkey 5T4 on …. As to the kind of experiment: flow cytometry, HEK-293 cells transfected with cynomolgus monkey 5T4, PE secondary [II)F].
The target of experiment [24] is T1, full length human 5T4 (SEQ ID NO: 1) on …. The experiment can be described thus: flow cytometry, HeLa cells, PE secondary [II)G].
For experiment [25], the target named is T2, full length cynomolgus monkey 5T4 on …. The experiment can be described thus: flow cytometry, HEK-293 cells transfected with cynomolgus monkey 5T4, PE secondary [II)H].

B1: bsIgG1-huCD3-H101G-FEALx5T4-226-FEAR (bispecific antibody)
heavy: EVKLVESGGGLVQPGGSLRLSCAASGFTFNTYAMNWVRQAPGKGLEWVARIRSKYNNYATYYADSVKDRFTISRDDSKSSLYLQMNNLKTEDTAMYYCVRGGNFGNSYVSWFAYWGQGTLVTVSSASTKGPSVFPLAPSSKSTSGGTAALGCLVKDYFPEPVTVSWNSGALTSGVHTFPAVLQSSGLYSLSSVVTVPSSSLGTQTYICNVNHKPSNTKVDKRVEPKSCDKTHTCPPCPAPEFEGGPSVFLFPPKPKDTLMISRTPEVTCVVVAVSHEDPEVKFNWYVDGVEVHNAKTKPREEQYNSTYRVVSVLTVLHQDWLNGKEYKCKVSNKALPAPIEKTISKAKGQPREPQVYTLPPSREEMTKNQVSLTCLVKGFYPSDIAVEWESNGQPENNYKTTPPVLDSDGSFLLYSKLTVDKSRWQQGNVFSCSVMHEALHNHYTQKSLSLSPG
light: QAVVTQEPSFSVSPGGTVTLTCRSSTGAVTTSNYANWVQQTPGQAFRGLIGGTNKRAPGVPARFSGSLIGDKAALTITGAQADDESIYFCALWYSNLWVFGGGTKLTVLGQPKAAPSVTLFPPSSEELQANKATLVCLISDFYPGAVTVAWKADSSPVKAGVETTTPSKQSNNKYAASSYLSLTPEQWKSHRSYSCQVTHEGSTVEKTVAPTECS
VH: QVQLQQWGAGLLKPSETLSLTCAVYGGSFSGYYWSWIRQPPGKGLEWIGEIDHSGSTNYNPSLKSRVTISVDTSKNQFSLKLSSVTAADTAVYYCAAWFGELWDYYYGMDVWGQGTTVTVSS
VL: EIVLTQSPATLSLSPGERATLSCRASQSVSSFLAWYQQKPGQAPRLLIYDASNRATGIPARFSGSGSGTDFTLTISSLEPEDFAVYYCQQRSNWPLTFGQGTRLEIK
notes: Fab-arm exchange product
For B1, the EC50 (read off the curve) (as a rule, the concentration at which the effect is half-maximal) in experiment [1] was about 0.04 µg/mL; in [2], about 0.02 µg/mL; in experiment [3] it was about 0.1 µg/mL; in experiment [4], about 0.04 µg/mL; in [5], about 0.1 µg/mL; in [6], about 0.2 µg/mL. In addition, the “EC50 (read off the curve)” value is about 0.06 µg/mL in [7] and about 0.1 µg/mL in experiment [8].

B2: bsIgG1-huCD3-H101G-FEALx5T4-106-FEAR (bispecific antibody)
heavy: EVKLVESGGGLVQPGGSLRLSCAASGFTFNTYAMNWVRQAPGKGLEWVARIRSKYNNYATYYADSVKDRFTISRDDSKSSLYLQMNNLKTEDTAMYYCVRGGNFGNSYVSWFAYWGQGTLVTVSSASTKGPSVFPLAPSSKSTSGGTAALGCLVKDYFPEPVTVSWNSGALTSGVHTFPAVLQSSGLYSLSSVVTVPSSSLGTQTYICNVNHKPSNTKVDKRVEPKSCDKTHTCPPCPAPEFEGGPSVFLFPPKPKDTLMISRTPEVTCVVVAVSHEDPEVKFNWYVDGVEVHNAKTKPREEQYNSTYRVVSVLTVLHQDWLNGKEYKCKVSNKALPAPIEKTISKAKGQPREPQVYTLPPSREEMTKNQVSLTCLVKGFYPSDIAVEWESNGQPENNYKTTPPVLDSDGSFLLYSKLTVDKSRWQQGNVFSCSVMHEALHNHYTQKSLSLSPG
light: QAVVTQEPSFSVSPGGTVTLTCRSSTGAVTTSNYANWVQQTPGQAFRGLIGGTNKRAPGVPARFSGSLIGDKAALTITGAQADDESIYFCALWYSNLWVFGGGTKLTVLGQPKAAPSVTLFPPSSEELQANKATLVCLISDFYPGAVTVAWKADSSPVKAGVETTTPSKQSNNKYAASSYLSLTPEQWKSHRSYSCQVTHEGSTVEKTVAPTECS
VH: EVQLVQSGAEVKKPGESLKISCKGSGYRFTSYWIGWVRQMPGKGLEWMGIIYPGDSDARYSPSFQGQVTISADKSISTAYLQWSSLKASDTGMYYCARSVLFDYWGQGTLVTVSS
VL: AIQLTQSPSSLSASVGDRVTITCRASQGISSALAWYQQKPGKAPKLLIYDVSNLESGVPSRFSGSGSGTDFTLTISSLQPEDFATYYCQQFNSYPHTFGQGTKLEIK
notes: Fab-arm exchange product
Consider B2, for which the “EC50 (read off the curve)” value in experiment [9] and in experiment [10] was about 0.1 µg/mL in each case. In experiment [11], the binding result is reported as “binds”.

B3: IgG1-5T4-085-FEAR (antibody, V domains shown)
VH: EVQLLESGGGLVQPGGSLRLSCAASGFTFSSYAMSWVRQAPGKGLEWVSAISGSGGSTYNADSVKGRFTIFRDNSKNTLYLHMNSLRAEDTAVYYCARDPGYNNVEYLDHWGQGTLVTVSS
VL: AIQLTQSPSSLSASVGDRVTITCRASQGISSALAWYQQKPGKAPKLLIYDASSLESGVPSRFSGSGSGTDFTLTISSLQPEDFATYYCQQFNSYPLTFGGGTKVEIK
notes: Monospecific, bivalent human IgG1 kappa with L234F, L235E, D265A, K409R (FEAR)
In the case of B3, the corrected association response in [12] is -0.02 nm; in experiment [13] it was -0.02 nm; in experiment [14], -0.02 nm; in experiment [15], -0.01 nm; in experiment [16] it was -0.04 nm; in [17], -0.01 nm. Besides, the corrected association response in [18] turned out to be 1.03 nm; in experiment [19] it was 1.35 nm; in experiment [20], 0.72 nm; in experiment [21], 0 nm. The entries for the “EC50 (read off the curve)” value in experiment [22] and in experiment [23] were about 0.04 µg/mL and about 0.008 µg/mL, respectively.

B4: bsIgG1-huCD3-H101G-FEALx5T4-A1-FEAR (bispecific antibody)
heavy: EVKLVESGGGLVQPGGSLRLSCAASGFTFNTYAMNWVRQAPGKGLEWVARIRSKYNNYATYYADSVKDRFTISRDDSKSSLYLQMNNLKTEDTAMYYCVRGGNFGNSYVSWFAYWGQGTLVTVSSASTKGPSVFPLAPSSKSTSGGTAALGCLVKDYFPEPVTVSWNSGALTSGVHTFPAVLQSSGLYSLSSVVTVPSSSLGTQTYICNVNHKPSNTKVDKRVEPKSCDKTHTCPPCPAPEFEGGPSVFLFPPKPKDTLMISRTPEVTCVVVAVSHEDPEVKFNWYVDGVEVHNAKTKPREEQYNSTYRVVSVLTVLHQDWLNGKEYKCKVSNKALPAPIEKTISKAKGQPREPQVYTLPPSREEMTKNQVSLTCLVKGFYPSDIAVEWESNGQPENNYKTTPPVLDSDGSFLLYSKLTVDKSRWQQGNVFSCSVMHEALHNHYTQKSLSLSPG
light: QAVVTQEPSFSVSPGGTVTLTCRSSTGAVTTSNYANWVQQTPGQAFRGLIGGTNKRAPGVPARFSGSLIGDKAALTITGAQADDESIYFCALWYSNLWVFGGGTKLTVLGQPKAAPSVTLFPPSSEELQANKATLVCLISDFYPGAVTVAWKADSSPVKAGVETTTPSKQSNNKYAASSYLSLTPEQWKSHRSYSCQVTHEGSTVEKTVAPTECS
VH: QIQLVQSGPELKKPGETVKISCKASGYTFTNFGMNWVKQGPGEGLKWMGWINTNTGEPRYAEEFKGRFAFSLETTASTAYLQINNLKNEDTATYFCARDWDGAYFFDYWGQGTTLTVSS
VL: SIVMTQTPKFLLVSAGDRVTITCKASQSVSNDVAWYQQKPGQSPKLLINFATNRYTGVPNRFTGSGYGTDFTFTISTVQAEDLALYFCQQDYSSPWTFGGGTKLEIK
notes: Fab-arm exchange product
Consider B4, for which the binding result in experiment [24] and in experiment [25] was “binds” each time.

B5: IgG1-5T4-A1-FEAR (antibody, V domains shown)
VH: QIQLVQSGPELKKPGETVKISCKASGYTFTNFGMNWVKQGPGEGLKWMGWINTNTGEPRYAEEFKGRFAFSLETTASTAYLQINNLKNEDTATYFCARDWDGAYFFDYWGQGTTLTVSS
VL: SIVMTQTPKFLLVSAGDRVTITCKASQSVSNDVAWYQQKPGQSPKLLINFATNRYTGVPNRFTGSGYGTDFTFTISTVQAEDLALYFCQQDYSSPWTFGGGTKLEIK
notes: Based on A1 from Wyeth; IgG1 with L234F, L235E, D265A, K409R (FEAR)
With B5, the binding result in experiment [24] is listed as “binds”. Besides, the “EC50 (read off the curve)” value in experiment [25] is about 0.1 µg/mL.

The values above are taken from patent publication US20230257479A1 (Genmab, published 2023).
